Values quoted from earlier work, collected in paper PMC6611495.
pKd: −log10 of the molar value.

Molecular target: protective antigen (PA) (Bacillus anthracis) (UniProt P13423)

In the case of rCMG2 (from UniProt P58335), the pKd is given as 9.40.
